Source: the RNAGym collection of RNA variant scans (doi:10.1073/pnas.2313332121)
Fewer inactive variants are shown than the library holds.

B1: TPR 5TU (parent)
chain: GGAUCUUCUCGAUCUAACAAAAAAGACAAAUCUGCCACAAAGCUUGAGAGCAUCUUCGGAUGCAGAGGCGGCAGCCUUCGGUGGCGCGAUAGCGCCAACGUUCUCAACUAUGACACGCAAAACGCGUGCUCCGUUGAAUGGAGUUUAUCAUG

Variants of: B1
Experiment: polymerase ribozyme fitness, log enrichment relative to wild type (log ratio); higher = more active; in vitro selection for triplet polymerase activity
Summary of the method: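 Streptavidin-bead capture of gel-excised extended constructs, followed by RT-PCR, closed a single triplicate in vitro selection round. That round began by annealing PCR-built, transcribed mutant libraries of each subunit of a heterodimeric triplet polymerase ribozyme with a biotinylated primer, the partner subunit and triplets, then incubating them frozen at −7 °C. After Illumina sequencing of inputs and outputs, genotypes needed ≥10 input reads and ≥1 read per output. Fitness is the base-2 logarithm of genotype enrichment over wild-type enrichment, using inverse-variance-weighted replicate averages.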
For GGAUCUUCUCGAUCUAACAAAAAAGACAAAUCUGCCACAAAGCUUGAGAGCAUCUUCGGAUGCAGAGGCGGCAGCCUUCGGUGGCACGAUAGCGCCAACGUUCUCAACUAUGACACGCAAAACGCGUGCUCCGUUGAAUGGAGUUUAUCAUG [G86A], the “polymerase ribozyme fitness (log ratio)” value was -0.877.
For GGAUCUUCUCGAUCUAACAAAAAAGACAAAUCUGCCACAAAGCUUGAGAGCAUCUUCGGAUGCAGAGGCGGCAGCCUUCGGUGGCACGAUAGCGCCAACGUUCUCAACUAUGCCACGCAAAACGCGUGCUCCGUUGAAUGGAGUUUAUCAUG [G86A A113C], the “polymerase ribozyme fitness (log ratio)” value was -3.53.
For GGAUCUUCUCGAUCUAACAAAAAAGACAAAUCUGCCACAAAGCUUGAGAGCAUCUUCGGAUGCAGAGGCGGCAGCCUUCGGUGGCACGAUAGCGCCAACGUUCUCAACUUUGACACGCAAAACGCGUGCUCCGUUGAGUGGAGUUUAUCAUG [G86A A110U A138G], the “polymerase ribozyme fitness (log ratio)” value was at most -4.2.
In the case of GGAUCUUCUCGAUCUAACAAAAAAGACAAAUCUGCCACAAAGCUUGAGAGCAUCUUCGGAUGCAGAGGCGGCAGCCUUCGGUGGUGCGAUAGCGCCAACGUUCUCAACUAUGACACGCAAAACGCGUGCUCCGUUGAAUGGAGUUGACCAUG [C85U U146G U148C], the “polymerase ribozyme fitness (log ratio)” value is reported as -2.24.
In the case of GGAUCUUCUCGAUCUAACAAAAAAGACAAAUCUGCCACAAAGCUUGAGAGCAUCUUCGGAUGCAGAGGCGGCAGCCUUCGGUGGCACGAUAGCGCCAACGUUCUCAACUAUGACACGCAAAGCGCGUGCUCCGUUGAAUGGAGUUUAUCAUG [G86A A122G], the “polymerase ribozyme fitness (log ratio)” value is reported as -1.11.
For GGAUCUUCUCGAUCUAACAAAAAAGACAAAUCUGCCACAAAGCUUGAGAGCAUCUUCGGAUGCAGAGGCGGCAGCCUUCGGUGGUGCGAUAGCGCCAACGUUCUCAACUAUGACACGCAAAACGCGUGCGCCGUUGAAUGGAGUUUAUCAUG [C85U U130G], the “polymerase ribozyme fitness (log ratio)” value was -3.71.
For GGAUCUUCUCGAUCUAACAAAAAAGACAAAUCUGCCACAAAGCUUGAGAGCAUCUUCGGAUGCAGAGGCGGCAGCCUUCGGUGGCACGUUAGCGCCAACGUUCUCAACUAUGACACGCAAAAUGCGUGCUCCGUUGAAUGGAGUUUAUCAUG [G86A A89U C123U], the “polymerase ribozyme fitness (log ratio)” value was -2.1.
In the case of GGAUCUUCUCGAUCUAACAAAAAAGACAAAUCUGCCACAAAGCUUGAGAGCAUCUUCGGAUGCAGAGGCGGCAGCCUUCGGUGGUGCGAUAGCGCCAACGUUCUCAACUAUGACACGCAAAACGCGUGCUCCGUUGAAUGGAGUUGAUCAUG [C85U U146G], the “polymerase ribozyme fitness (log ratio)” value is reported as -0.713.
For GGAUCUUCUCGAUCUAACAAAAAAGACAAAUCUGCCACAAAGCUUGAGAGCAUCUUCGGAUGCAGAGGCGGCAGCCUUCGGUGGUGCGAUAGCGCCAACGUUCUCAACUAUGACACGCAAAACGCGUGCUCCGUUGAAUGGAGUUAAUCAUG [C85U U146A], the “polymerase ribozyme fitness (log ratio)” value was -0.167.
In the case of GGAUCUUCUCGAUCUAACAAAAAAGACAAAUCUGCCACAAAGCUUGAGAGCAUCUUCGGAUGCAGAGGCGGCAGCCUUCGGUGGUGCGAUAGCGCCAACGUUCUCAACUAUGACACGCAAAACGCGUGCUCCGUUGAAUGGAGUUUAUCAGG [C85U U151G], the “polymerase ribozyme fitness (log ratio)” value is reported as -4.14.
With GGAUCUUCUCGAUCUAACAAAAAAGACAAAUCUGCCACAAAGCUUGAGAGCAUCUUCGGAUGCAGAGGCGGCAGCCUUCGGUGGUGCGAUAGCGCCAACGUUCUCAACUAUGACACGCAAAACGCGCGCUCCGUUGAAUGGAGUAUAUCAUG [C85U U127C U145A] the “polymerase ribozyme fitness (log ratio)” value was -3.58.
In the case of GGAUCUUCUCGAUCUAACAAAAAAGACAAAUCUGCCACAAAGCUUGAGAGCAUCUUCGGAUGCAGAGGCGGCAGCCUUCGGUGGUGCGAUAGCGCCAACGUUCUCAACUAUGACACGCAAAACGCGUGCUCCGUUGAAUGGAGUUUAACAUG [C85U U148A], the “polymerase ribozyme fitness (log ratio)” value is reported as -3.08.
With GGAUCUUCUCGAUCUAACAAAAAAGACAAAUCUGCCACAAAGCUUGAGAGCAUCUUCGGAUGCAGAGGCGGCAGCCUUCGGUGGUGCGAUAGCGCCAACGUUCUCAACUAUGACACGCAAAACGCGUGCUCCGUUGAAUGGAGUUUACCAUG [C85U U148C] the “polymerase ribozyme fitness (log ratio)” value was -2.19.
For GGAUCUUCUCGAUCUAACAAAAAAGACAAAUCUGCCACAAAGCUUGAGAGCAUCUUCGGAUGCAGAGGCGGCAGCCUUCGGUGGCACGUUAGCGCCAACGUUCUUAACUAUGACACGCAAAACGCGUGCUCCGAUGAAUGGAGUUUAUCAUG [G86A A89U C105U U134A], the “polymerase ribozyme fitness (log ratio)” value was -3.77.
In the case of GGAUCUUCUCGAUCUAACAAAAAAGACAAAUCUGCCACAAAGCUUGAGAGCAUCUUCGGAUGCAGAGGCGGCAGCCUUCGGUGGUGCGAUAGCGCCAACGUUCUCAACUAUGACACGCAAAACGCGUGCUCCGCUGAAUGGAGAUUAUAAUG [C85U U134C U144A C149A], the “polymerase ribozyme fitness (log ratio)” value is reported as -4.1.
For GGAUCUUCUCGAUCUAACAAAAAAGACAAAUCUGCCACAAAGCUUGAGAGCAUCUUCGGAUGCAGAGGCGGCAGCCUUCGGUGGUGCGACAGCGCCAACGUUCUCAACUAUGACACGCAAAACGCGUGCUCCGUUGAAUGGAGUUUAUCAUG [C85U U90C], the “polymerase ribozyme fitness (log ratio)” value was -3.89.
For GGAUCUUCUCGAUCUAACAAAAAAGACAAAUCUGCCACAAAGCUUGAGAGCAUCUUCGGAUGCAGAGGCGGCAGCCUUCGGUGGUGCGAUAGCGCCAACGUUCUCAACUAUGACACGCAAAACGCGUGCUCCGUGGAAUGAAGUUUAUCAUG [C85U U135G G141A], the “polymerase ribozyme fitness (log ratio)” value was -3.54.
In the case of GGAUCUUCUCGAUCUAACAAAAAAGACAAAUCUGCCACAAAGCUUGAGAGCAUCUUCGGAUGCAGAGGCGGCAGCCUUCGGUGGCACGAUAGCGCCAACGUUCUCAACUAUGACACGCAAAACGCGUGCUCCGUUGAAUGGAGUUUAUCGUG [G86A A150G], the “polymerase ribozyme fitness (log ratio)” value is reported as -3.09.
With GGAUCUUCUCGAUCUAACAAAAAAGACAAAUCUGCCACAAAGCUUGAGAGCAUCUUCGGAUGCAGAGGCGGCAGCCUUCGGUGGCACGAUAGCGCCAACGUUCUCAACUAUGACACGCAAAACGCGUGCUCCGUUGAAUGGAGUUUAUCCUG [G86A A150C] the “polymerase ribozyme fitness (log ratio)” value was at most -4.2.
